# Laboratory results from US7291458B2, “Leptin-mediated gene-induction” (Vlaams Interuniversitair Instituut Voor Biotechnologie VZW, priority 1998, dated 2007).
# T1: long isoform of the mouse leptin receptor (Mus musculus, UniProt P48356)
# T1 construct: expressed in transfected cells; host or cells: PC12 (rat pheochromocytoma), transient electroporation with pMET7-mLRlo
# T1 sequence (P48356 22-1162): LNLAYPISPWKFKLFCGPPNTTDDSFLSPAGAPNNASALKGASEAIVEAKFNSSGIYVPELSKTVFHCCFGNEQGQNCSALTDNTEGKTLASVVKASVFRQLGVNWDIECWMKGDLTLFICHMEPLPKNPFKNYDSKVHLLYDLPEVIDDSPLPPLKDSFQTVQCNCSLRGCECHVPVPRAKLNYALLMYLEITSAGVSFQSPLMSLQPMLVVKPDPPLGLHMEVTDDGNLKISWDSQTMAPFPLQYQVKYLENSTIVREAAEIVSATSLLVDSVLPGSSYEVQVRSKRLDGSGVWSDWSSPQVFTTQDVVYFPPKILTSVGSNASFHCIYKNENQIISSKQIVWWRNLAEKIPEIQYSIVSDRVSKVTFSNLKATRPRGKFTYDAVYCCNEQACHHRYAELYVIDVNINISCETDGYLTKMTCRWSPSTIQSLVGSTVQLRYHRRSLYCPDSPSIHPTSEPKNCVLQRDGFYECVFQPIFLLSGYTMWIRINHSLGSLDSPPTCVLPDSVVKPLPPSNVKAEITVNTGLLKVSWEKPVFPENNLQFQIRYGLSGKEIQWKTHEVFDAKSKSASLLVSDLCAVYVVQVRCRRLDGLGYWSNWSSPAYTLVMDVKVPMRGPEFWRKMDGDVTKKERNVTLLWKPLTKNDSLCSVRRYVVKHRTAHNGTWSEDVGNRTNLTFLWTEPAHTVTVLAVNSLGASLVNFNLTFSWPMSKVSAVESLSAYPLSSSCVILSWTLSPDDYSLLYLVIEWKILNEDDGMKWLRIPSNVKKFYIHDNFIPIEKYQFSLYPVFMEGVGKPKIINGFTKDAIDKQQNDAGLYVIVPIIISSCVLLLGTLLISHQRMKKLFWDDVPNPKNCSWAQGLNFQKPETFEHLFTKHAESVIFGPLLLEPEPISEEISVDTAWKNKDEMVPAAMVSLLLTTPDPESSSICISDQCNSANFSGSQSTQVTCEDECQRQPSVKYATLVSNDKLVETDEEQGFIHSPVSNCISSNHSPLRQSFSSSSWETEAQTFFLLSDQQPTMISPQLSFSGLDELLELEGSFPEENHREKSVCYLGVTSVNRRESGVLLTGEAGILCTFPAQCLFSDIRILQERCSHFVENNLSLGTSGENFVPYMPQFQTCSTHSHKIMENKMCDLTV
# B1: leptin: mouse leptin (R&D Systems), ob gene product, used on PC12 cells at 100 ng/ml (protein)
# chain: VPIQKVQDDTKTLIKTIVTRINDISHTQSVSAKQRVTGLDFIPGLHPILSLSKMDQTLAVYQQVLTSLPSQNVLQIANDLENLRDLLHLLAFSKSCSLPQTSGLQKPESLDGVLEASLYSTEVVALSRLQGSLQDILQQLDVSPEC
# Target: T1, long isoform of the mouse leptin receptor
# Experiment: rNPY promoter luciferase reporter in PC12 cells transiently transfected with pMET7-mLRlo
# Type: cell-based
# Method: FIG. 1A. Leptin-induced NPY promoter activity in transiently transfected PC12 cells. PC12 cells were co-transfected with control vector (columns 1 and 2), pMET7-mLRsh (columns 3 and 4) or pMET7-mLRlo (columns 5 and 6) together with the pGL3-rNPYluc reporter. The different subcultures were mock stimulated (growth medium alone) or treated with mouse leptin (100 ng/ml) for 72 hours. Luciferase activity in cell lysates is shown; data represent the mean±standard deviation values of assays performed in triplicate.
# FIG. 1B. Forskolin co-stimulation on leptin-induced pGL3-rNPY luciferase activity. PC12 cells were transiently co-transfected with pMET7-mLRlo and the pGL3-rNPYluc reporter. […]
# In order to study leptin receptor signaling in a neuro-endocrine-related cell type, we transiently transfected PC12 cells with expression vectors for the long or the short isoform of the mouse leptin receptor (pMET7-mLRlo and pMET7-mLRsh respectively) and monitored gene induction by leptin. […]
# Luciferase activity was measured in transfected cells by chemiluminescence. […] 70 μl of luciferase substrate buffer (20 mM Tricine; 1.07 mM (MgCO3)4Mg(OH)25H2O; 2.67 mM MgSO4; 0.1 mM EDTA; 33.3 mM DTT; 270 μM Coenzyme A (lithium salt); 470 μM Luciferin (Duchefa); 530 μM ATP, final pH 7.8) was added to 100 μl of cell lysate and measured for 5 seconds by TopCount.NXT Chemiluminescence Counter (Packard).
molecule,measurement,setting,value
B1,"luciferase activity, rNPY reporter","PC12 cells co-transfected with pGL3-rNPYluc and pMET7-mLRlo, leptin alone",moderate stimulation
same,optimal co-stimulatory concentration,"leptin plus forskolin, rNPY luciferase",100 ng/mL
